Here are results for 30 sequences from the nanobody polyreactivity screen of Harvey et al. (2022).

The data set can be described thus: yeast display, Sf9 membrane polyspecificity reagent, FACS + sequencing; frameworks hold sequencing errors. Summed up: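 Nanobodies came from a synthetic yeast display library in Saccharomyces cerevisiae BJ5465, induced with galactose for 36–48 hours and stained for 1 hour at 4 °C with 10% biotinylated, detergent-solubilized Sf9 membrane reagent. Cells were enriched on streptavidin microbeads and then FACS-sorted, with low and high (top ~1%) gates set on anti-HA fluorescence for expression and streptavidin fluorescence for reagent binding. Each polyreactivity label reflects the gate a clone came from. Genes were amplified by colony PCR, sequenced by MiSeq 2 × 250 and filtered by CDR length.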
Turning to “QVQLVESGGGLVQAGGSLRLSCAASGITIVNYVMGWYRQAPGKERELVAAISIGGGTYYADSVKGRFTISRDNAKNTVYLQMNSLKPEDTAVYYCNARSEVSYWWGGYWGQGTQVTVSS”, the “polyreactivity (PSR sort gate)” value is on record as “low polyreactivity”.
As for “QVQLVESGGGLVQAGGSLRLSCAASGITIVWYAMGWYRLAPGKEREFVASISWRGGTTYYADSVKGRFTISRDNAKNTVDLQMNSLKPEDTAVYYCAARTRWWYRYDYWGQGTQVTVSS”, the “polyreactivity (PSR sort gate)” value is “high polyreactivity”.
Next, “QVQLVESGGGLVQAGGSLRLSCAASGITIYHNAMGWYRPAPGKERELVAAISWSGGSTYYADSVKGRFTISRDNANNTVYLQMNSLKPEDSAVYYCAAYQRVREGHDYEYWGQGTQVSVSS”: “high polyreactivity”.
Next, “QVQLVESGGGLVQAGGSLRLSCAASGITIYKNAMGWYRQAPGKERELFAAITRGGSTYYADSVKGRFTISRDNAKNTVYLQMNCLKPEDTAVYYCNKVYHWQTPGFGYGYWGQGTQVTVST”: “high polyreactivity”.
For the sequence “QVQLVESGGGLVQAGGSLRLSCAASGITIYVYAMGWYRQAPGTERELVAAITRSGGITSYADSVKGRFTISRDNAKNTVYLQMNSLKPEDTAVYYVAAESTNLHYHIQGVGYWGQGTQVTVSS”, the “polyreactivity (PSR sort gate)” value is “low polyreactivity”.
Next, “QVQLVESGGGLVQAGGSLRLSCAASGITLDRNYMGWYRQAPGKERELVAAISRSGVRTYYADSVKGRFTISRDNAKNTVYLQMNSLKPEDTAVYYCNKGYARRYASGYDYWGQGTQVTVSS”: “high polyreactivity”; “QVQLVESGGGLVQAGGSLRLSCAASGITLDVNALGWYRQAPGKERELVADITWSDDSTYYADSVKGRFTISRDNAKNTVYLQMNSLKPEDTAVYYCAADVSVSFHPRGYDYWGQGTQVTVSS”: “low polyreactivity”.
Next, “QVQLVESGGGLVQAGGSLRLSCAASGITLGRYAMGWYRQAPGKERELVAAISRSGGSTYYADSVKGRFTISRANAKTTVYLQMNSLKPEDTAVYYCNRRVYPTSDYDYWGQGTQVTVSS”: “high polyreactivity”.
As for “QVQLVESGGGLVQAGGSLRLSCAASGITLKLYVMGWYRQAPGKERELVAAISRRGGSTYYADSVKGRFTISRDNAKNTVYLQMNSLKPEDTAVYYCAKDGTQYERQDPAYGYWGQGTQVTVSS”, the entry is “high polyreactivity”; as for “QVQLVESGGGLVQAGGSLRLSCAASGITLRLYAMGWYRQAPGKERELVAAISKRGGSTYYADSVKWRFTISRDNAKNTVYLQMNSQKPEDTAVYYCAADSGWEHRYDYWGQGTQVTVSS”, “high polyreactivity”.
As to “QVQLVESGGGLVQAGGSLRLSCAASGITLTVYTMGWYRQAPGKERKLVAAITYGGTSTYYADSVKGRFTISRDNAKNTVYLQMNSLKPEDTAVYYCAARARIYNYWGQGTQVTVSS”, the “polyreactivity (PSR sort gate)” value is “high polyreactivity”.
As for “QVQLVESGGGLVQAGGSLRLSCAASGITLTYYAMGWYRQAPGKERELVAAITWNGGHTYYADSVKGRFTISRDNAKNTVYLQMISQKPEDTAVYYCAAELWAYTWYWHSDYWGQGTQVTVSS”, the entry is “low polyreactivity”; as for “QVQLVESGGGLVQAGGSLRLSCAASGITLYAYVMGWYRQAPGKERELVAAIRSGGSTYYADSVKGRFTISRDNAKNTVYLQKNSLKPEDTAVYYCAAYYPLWGWGYDYWGQGTQVTVSS”, “high polyreactivity”.
Regarding “QVQLVESGGGLVQAGGSLRLSCAASGITLYGNAMGWYRQAPGKEREFVAAISRSGDRTYYADSVKGRFTISRDNAKNTVYLPMYSLKPEDTAVYSCARDYRSYTGSYDTSYDYWGQGTQVTVSS”, the “polyreactivity (PSR sort gate)” value is “high polyreactivity”.
For “QVQLVESGGGLVQAGGSLRLSCAASGITLYGYTMGWYRQAPGKERELVAGISRGGSTYYADSVKGRFTISRDNAKNSVYLEMNSLKPDVTAVYYCAAAGWYRGDYWGQGTQVTVSS”, the “polyreactivity (PSR sort gate)” value is listed as “high polyreactivity”.
Next, “QVQLVESGGGLVQAGGSLRLSCAASGITLYWYAMGWYRQAPGKERELVAAISRRGGTTYYADSVKGRFTISRDNAKNTVYLQMNSLKPEDTAVYYCAKAPDTQTSWSRQEGNYWGQGTQVTVSS”: “low polyreactivity”; “QVQLVESGGGLVQAGGSLRLSCAASGITSCFSAMGWYRPAPGQERELVAGISSGGSTNYADSVKGRFTISRDNAKNTVYLQMTSLKPEDTAVYYCPATFYNRYETRYYYWGQGTQVTVSS”: “high polyreactivity”.
With “QVQLVESGGGLVQAGGSLRLSCAASGITYEGYAMGWNRKAPGKERELVAAIRSSGTSTYYADSVKGRFTISRDNAKNSVYLQMNSLKPEDTAVYYCNRARSSSRYDYWGQGTQVTVSS”, the “polyreactivity (PSR sort gate)” value is on record as “low polyreactivity”.
As for “QVQLVESGGGLVQAGGSLRLSCAASGITYPRYTMGWYRQAPGKERQLVAAITRRSGSTNYADSVKGRITISRDNAKNTVYLQMNSLKPEDTAVYYCAAVVQVYDRGYHVIAKYYYWGQGTQVTVSS”, the entry is “high polyreactivity”; as for “QVQLVESGGGLVQAGGSLRLSCAASGITYYNAMGWYRQAAGKERELVARISWSSVSTYYADSVKGRFTISRDNAKNTVYLQMNSLKPEDTAVYYCAAEVRGSDYDYWGQGTQLTVSS”, “high polyreactivity”; as for “QVQLVESGGGLVQAGGSLRLSCAASGIYINAMGWYRQAPGKERELVAAISRGGSTYYADSVKGRFTISRDNAKNTVYLKMNSLKPEDTAVYYCAKLIGRWRLYHTFVKGDYWGQGTQVTVSS”, “high polyreactivity”.
On to “QVQLVESGGGLVQAGGSLRLSCAASGIYPYYAMGWYRQAPGKERELVATISSADGPKYADSVKGRFTISRDNAKNTVYLQMNSLKPEDTAVYYCNAYVWSWHDYWGQGTQVTVSS”, for which the “polyreactivity (PSR sort gate)” value is given as “low polyreactivity”.
As for “QVQLVESGGGLVQAGGSLRLSCAASGLICPLNAMGWYRQAPGKERELVAAITYSGGGTYYADSVKGRFTISRDNAKNTVDLQMNSLKAEDTAVYYCAADGSVSYYTYYYWGQGTHVTVSS”, the entry is “low polyreactivity”; as for “QVQLVESGGGLVQAGGSLRLSCAASGLIDSYYAMGWYRQAPGKERELVAVITSGGSTYYADSVKGRFTISRDNAKNTVYLQMNSLNPEDTAVYYCAARVRVSYNRYHGLYAVSRGDYWGQGTQVTVSS”, “high polyreactivity”.
Next, “QVQLVESGGGLVQAGGSLRLSCAASGLIFAEYAMGWYRQAPGKERELVARITSGGSTDYADSVKGRFTISRDNAKNTVYLQMNSLKPEDTAVYYCAARYYSQDKNASTASDFDYWGQGTQVTVSS”: “low polyreactivity”; “QVQLVESGGGLVQAGGSLRLSCAASGLIFAGYAMGWYRQAPGKERELVAAITWRGGRTYADSVKGRFTISRDNAKNTVYLQMNSLKPEDTAVYYCAVRRWGTSFVEDDYWGQGTQVTVSS”: “low polyreactivity”.
As for “QVQLVESGGGLVQAGGSLRLSCAASGLIFAQYAMGWYRQAPGKEREFVAAISYSGGNTYYADSVKGRFTISRDNAKNTVYLQMNSLKPEDTAVYYCAADYYWYHYAGWVGQYGYWGQGTQVTVSS”, the entry is “low polyreactivity”; as for “QVQLVESGGGLVQAGGSLRLSCAASGLIFAYNTMGWYRQAPGKERELVAGITSSGSTYYADSVKGRFTISRDNEKNTVYLQMNSLKPEDTAVYYCAAEWDDGRSWYWYYLVGFEYWGQGTQVTVSS”, “high polyreactivity”; as for “QVQLVESGGGLVQAGGSLRLSCAASGLIFAYYAMGWYRQAPGKERELVAAISWTGGSTYYADSVKGRFTISRDNAKNTVYLQMTSLKPEDTAVYYCNTVGKPGFYSWGQGTQVTVSS”, “high polyreactivity”.
As for “QVQLVESGGGLVQAGGSLRLSCAASGLIFDDYAMGWYRQAPGKERELVAAISLSGGSTFYADSVKGRFTISRDNAKNTVYLQMNSLKAEDTAVYYCAAQARRAYVQTRMYYWGQGTQVTVSS”, the “polyreactivity (PSR sort gate)” value was “high polyreactivity”.
